Here are results for one substance from publication PMC9095878.

For the assay, the target named is N-terminal domain of mouse gasdermin-A3 released by TEV cleavage (mGSDMA3^Nterm) (mouse) (UniProt Q5Y4Y6). Description: atomic force microscopy; supported lipid membranes (E. coli polar lipid extract) on mica incubated 3 h at 37 °C with 1.5 µM mGSDMA3 pre-cleaved with 0.4 µM TEV, rinsed, imaged by contact mode or FD-based AFM at room temperature in 50 mM NaCl, 0.1 mM EDTA, 0.1 mM TCEP, 20 mM Hepes, pH 7.4; subunits of ring-shaped oligomers counted from rotational power spectra.

Values joined by “and” are separate entries in the source; they are usually repeats but may differ in a detail not shown here. Identical values can stand only once.

Consider “N-terminal domain of mouse gasdermin-A3 released by TEV cleavage (mGSDMA3^Nterm) (from UniProt Q5Y4Y6 1-237) (domain or fragment)”, for which the stoichiometry N is 18 to 36 (2×) and 30.

As a reminder, the stoichiometry N is a count of units in the complex or per binding partner.
